Reference: publication PMC7320145, “Substrate Channeling via a Transient Protein-Protein Complex: The case of D-Glyceraldehyde-3-Phosphate Dehydrogenase and L-Lactate Dehydrogenase” (Scientific Reports, 2020)

How the values were obtained:
[1] = system: NC(=O)C1=CN([C@@H]2O[C@H](COP(=O)(O)OP(=O)(O)OC[C@H]3O[C@@H](n4cnc5c(N)ncnc54)[C@H](O)[C@@H]3O)[C@@H](O)[C@H]2O)C=CC1; experiment: purified protein; type: biochemical, Sus scrofa; conditions: free NADH, 630 μM pyruvate, 50 mM Tris/HCl pH 7.4, 25 °C
[2] = system: NC(=O)C1=CN([C@@H]2O[C@H](COP(=O)(O)OP(=O)(O)OC[C@H]3O[C@@H](n4cnc5c(N)ncnc54)[C@H](O)[C@@H]3O)[C@@H](O)[C@H]2O)C=CC1; experiment: purified protein; conditions: free NADH, 630 μM pyruvate, 50 mM Tris/HCl pH 7.4, 25 °C

phLDH (porcine heart LDH) (Sus scrofa), sequence (chain, as listed by the source): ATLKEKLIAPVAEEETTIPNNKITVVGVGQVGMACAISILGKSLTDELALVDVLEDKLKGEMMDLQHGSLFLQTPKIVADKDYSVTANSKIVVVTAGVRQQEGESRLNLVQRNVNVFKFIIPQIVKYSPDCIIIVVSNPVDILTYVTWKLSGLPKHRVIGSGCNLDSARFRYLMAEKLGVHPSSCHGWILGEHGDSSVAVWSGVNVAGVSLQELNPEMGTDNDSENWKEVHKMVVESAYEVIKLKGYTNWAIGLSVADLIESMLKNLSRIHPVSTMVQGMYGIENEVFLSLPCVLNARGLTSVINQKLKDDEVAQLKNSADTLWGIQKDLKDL

Substance	Km [1]	Km [2]
phLDH (porcine heart LDH) (Sus scrofa)	7.8 ± 0.9 µM	–
rmLDH (rabbit muscle LDH) (Oryctolagus cuniculus)	–	4.4 ± 0.4 µM
